Patent US20220195053A1 (SURROZEN OPERATING, published 2022)

T1: Mucin 13, cell surface associated (MUC-13), on human intestine HT29 cells (human, UniProt Q9H3R2 19-512)
T1 construct: whole, on cells
T1 sequence (looked up): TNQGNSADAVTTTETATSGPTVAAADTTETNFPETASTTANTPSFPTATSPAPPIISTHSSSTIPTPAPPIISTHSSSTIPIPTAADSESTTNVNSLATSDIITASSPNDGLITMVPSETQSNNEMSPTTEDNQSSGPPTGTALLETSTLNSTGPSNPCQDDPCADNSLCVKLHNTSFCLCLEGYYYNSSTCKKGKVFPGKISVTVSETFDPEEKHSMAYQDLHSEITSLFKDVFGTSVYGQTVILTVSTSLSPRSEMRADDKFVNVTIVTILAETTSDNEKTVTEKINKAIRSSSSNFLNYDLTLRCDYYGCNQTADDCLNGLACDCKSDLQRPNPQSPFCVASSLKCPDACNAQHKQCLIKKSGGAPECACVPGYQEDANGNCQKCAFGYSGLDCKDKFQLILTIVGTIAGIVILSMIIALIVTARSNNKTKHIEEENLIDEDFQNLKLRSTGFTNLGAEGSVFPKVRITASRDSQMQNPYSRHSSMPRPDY

B1: C4 MUC-13 antibody, full-length IgG format (antibody, V domains shown)
VH: DVQLQESGPGLVKPSQSLSLTCSVTGYSITSGYYWNWIRQFPGNKLEWMGYISYDGSNNYNPSLKNRISITRDTSKNQFFLKLNSVTTEDTATYYCVRVPTMITSYYFDYWGQGTTLTVSS
VL: QIVLTQSPAIMSASPGEKVTISCSASSSVGYIYWYQQKPGSSPKPWIYRTSNLASGVPARFSGSGSGTSYSLTISSMEAEDAATYYCQQYHSYPPTFGGGTKLEIKR
B2: C14 MUC-13 antibody, full-length IgG format (antibody, V domains shown)
VH: QVQLQQSGAELVRPGSSVKISCKASGYAFSTYWMNWVKQRPGQGLEWIGQIYPGDGDTYYNGNFKGKATLTADKSSSTAYMQLSSLTSEDSAVYFCAVFWDGYWGQGTTLTVSS
VL: QIVLTQSPTIMSASPGEKVTMTCSASSSVTYIHWYQQKSGTSPKRWIYDTSKLASGVPARFGGSGSGTSYSLTINSMETEDAATYYCQQWSSNPFTFGSGTKLEIKR

Experiments:
[1] = target: T1, Mucin 13, cell surface associated …; test: Flow cytometry (FACS) on MUC-13 expressing HT29 cells, antibody at 10 nM, compared with the anti-GFP IgG control. HEK293 cells serve as the MUC-13 negative control.
Protocol: (§1) Cell surface binding of the MUC-13 antibodies was examined by FACS at 10 nM.
(§2) The MUC-13 binders C4, C7, and C14 (see, e.g., WO2016168607A1) were cloned and produced in the full-length IgG format and their binding capacity to MUC-13 was determined by FACS analysis to MUC-13 expressing HT29 cells. Their potential binding to MUC-13 non-expressing HEK293 cells was also analyzed as a negative control. Cells were harvested and washed 2× with FACS buffer (PBS (—Ca²⁺, —Mg²⁺), 0.1% BSA, 0.5% sodium Azide) and resuspended in FACS buffer at 10⁶ cells/ml. 60 μl of the cell suspension was aliquoted to each well of a 96-well v bottom plate, and the plate was spun for 3 min at 1500 rpm to remove the FACS buffer before adding corresponding MUC-13 antibody or anti-GFP control antibody at 10 nM diluted in FACS buffer and incubated at 4C for 1 hour. Plate was then spun to remove the primary antibodies and washed 1× with FACS buffer before adding Alexa Fluor® 488 goat anti-human secondary antibody (ThermoFisher Scientific) and incubating at 4C for 30 min. This media was then removed after spinning, and the plate washed 1× in FACS buffer. Cells were then resuspended in […] FACS buffer and analyzed on a BD Accuri™ Cell Analyzers (Becton Dickinson) at 10,000 events. […]

[2] = target: T1, Mucin 13, cell surface associated …; test: Flow cytometry (FACS) on MUC-13 expressing HT29 cells, antibody at 10 nM, fluorescent goat anti-human secondary antibody, compared with the anti-GFP IgG control. MUC-13 negative HEK293 cells serve as the specificity control.
Protocol: as §1, §2

Binder	binding result [1]	binding result [2]
B1	no binding (tested: 10 nM)	
B2		binds
